Data: the DeepSol protein solubility set

assay: soluble on expression in E. coli; label from the status in PepcDB or PDB records

Sequence | soluble on expression in E. coli
MDLKSTKKTWKIPSFNQMWGKITSHIGVWFGLEEAERPMRASCSLSMIHHPQLTAVRSSKSSENLHRITTMSPQRIQDVDGSPSTRKPSSSIFTLRRSRNKEKKYKNNGGGGSTKSPISKNGTNEMTQSWHSNHVNGASSGSGSGSTPEHHNKNIFSFLSRQSRSRSNNPSETMSTVPLNKNSPSMPPPPSSNTVADFTHLRRRRPRSAHYDPNTITLPAKEEVTPQDVNDLYKRIDKLGEGSYATVYKCESKLDGSIVALKEIKLQFQEGLPFTAIREASLLRNLRHANIVSLHDIFYQHHQLTFVFEYMKMDLSKYLEQNVYGLDSIDIKLLLFQLLRGLDFCHRKKILHRDLKPQNLLLDEDGVLKLADFGLARAKSVPSRTYSHEVVTLWYRPPDVLMGSTDYSTSLDMWGVGCIFAEICTGAALFPGSKDSHYPGTKDQLDMIFSIRGTPDEKKWPEVKTLPGYTPELFPRYRELSFIAVNPMFTKILKTGQELLGMLLQLRPESRVSAASAMLHPYFASFPREVHLLAPSQSIFRLKELKDLRSL | not soluble
MDLTHFQDGRPRMVDVTEKPETFRTATAEAFVELTEEALSALEKGGVGKGDPLVVAQLAGILAAKKTADLIPLCHPLPLTGVEVRVELLKAEKRVRIEATVKTKAETGVEMEAMTACAVAALTVYDMLKAASKGLVISQVRLLHKAGGKSGEWRREQ | soluble
MDLTQLEMFNAVAEAGSITQAAAKVHRVPSNLTTRLRQLETELGVDLFIRENQRLRLSPAGHNFLRYSQQILALVDEARSVVAGDEPQGLFSLGSLESTAAVRIPATLAEFNRRYPKIQFSLSTGPSGTMLDGVLEGKLNAAFIDGPINHTAIDGIPVYREELMIVTPQGYAPVTRASQVNGSNIYAFRANCSYRRHFESWFHADGAAPGTIHEMESYHGMLACVIAGAGIALIPRSMLESMPGHHQVEAWPLAEQWRWLTTWLVWRRGAKTRPLEAFIQLLDVPDSARQGYQ | soluble
MDMEVDEAISGTSSSRLAPIEEVKPTPKQIKRIAAHSHVKGLGIDTETQEAHYEAAGFVGQAPARTAASIVVDMIRLKCMAGRAVLIAGPPATGKTAIALAMSQELGDGVPFVPLVASEVFSNEVKKTEVLMRSFRRAIGLRVKETKDVYEGEVTELSPVEASDNSGMGKTISHLVLSLKTAKGSKQLKLDPSIYDSILKQRVEVGDVIYIEANSGIVKRVGRCDVYASEFDLEADEFVPMPKGDVRKSKDIVQNVSLHDLDIANARPQGRQGDVSNIVSQLMTPKKTEVTDRLRSEINKVVNEYIESGVAELMPGVLFIDEVHMLDVECFTYLYRALESPMAPVVVFATNRGTTTVRGLGDKAPHGIPPEMLDRLMIIPTMKYNEEDIRKILVHRTEAENVQFEEKAFDLLTRLCAQTCGREVIEVEDVDRCTKLFMDRGESLKKAEEEMRQPKNKK | not soluble
MDNFMDYIYRDFHIMQQTYATLVSVNNKIQIQTDKYSDNITSRQYMTILAIFHLPEDETTLNNIAKKLGTTKQNIKQIINILEGKGYVQTMPSKQDKRAINVSVTKEGWQVAESYAEKSFELFGDIFNDFSVEEMKILWMLLKKLYRFDGEEQDGFEEDANPSGELTEEQIEMAEAFARRRREKYGSK | not soluble
MDNGWPNLQTLALFVAIVEEGSLGAGARKVGMAQPNASRAIAELEADMKAELLVRHPRGSHPTAAGLALVEHSRDLLQSVQEFTEWVTEGRTEQPLKLHVGASMTIAEALLPAWVADMRTRFPACRVDVSVMNSSQVIEAVQKGHLQLGFIETPHVPVRLHARVVQEDKLIVVISPNHEWANRTGRISLRELSETPLIVREVGSGTREALQELLADYDMAEPIQVLNSNAAVRVVVEAGAGPAVLGELALRDHLALGRLLSVPFEGSGVTRPLTAVWSGPRRLPILAGELVSIASNHI | not soluble
MDNKLDVFRRELVDVEGIPLFWSIAEHWSQVESFEARPDDILISTYPKSGTTWVSEILDLIYNNGDAEKCKRDAIYKRVPFMELIIPGITNGVEMLNNMPSPRIVKTHLPVQLLPSSFWKNDCKIIYVARNAKDVVVSYYYFYQMAKIHPEPGTWEEFLEKFMAGQVSFGPWYDHVKSWWEKRKEYRILYLFYEDMKENPKCEIQKILKFLEKDIPEEILNKILYHSSFSVMKENPSANYTTMMKEEMDHSVSPFMRKGISGDWKNQFTVAQYEKFEEDYVKKMEDSTLKFRSEI | soluble
MDNLNVFANEDNQVNDVKPPPPPPRVCARCDSDNTKFCYYNNYCEFQPRYFCKNCRRYWTHGGALRNIPIGGSSRAKRARVNQPSVARMVSVETQRGNNQPFSNVQENVHLVGSFGASSSSSVGAVGNLFGSLYDIHGGMVTNLHPTRTVRPNHRLAFHDGSFEQDYYDVGSDNLLVNQQVGGYGYHMNPVDQFKWNQSFNNTMNMNYNNDSTSGSSRGSDMNVNHDNKKIRYRNSVIMHPCHLEKDGP | not soluble
MDNRNHSANVLIHLHMPKTGGTTLKKIIKRNYDSRKSVDVYEEHHKLPGIFKGLSKQNIECVQGHLPFGVHEYFNRPTTYITMLRDPVDRVISEYYFIRNIEWHNLHESVMKMSLEEYQGLPKNRNLQTRYILGGQLTSVTEVNRAKNILKNHFAVVGLTEKFDASLFLMKEMFNWKQVAYQKYNVTKKRRSKEEISPKLLEKIAKNNEADLELYAFAKELLAKRIRALDPLSAYRLKRFERKHQQGFHGKRDRMAGDPLEHHHHHH | soluble
MDNRSASLHSDIDTVLNNYDYDFAEVEIAVLGNGHINNTYKLTTPEVEFVLQQINHDVFPKTAELSSNAQKINLHLQRQKNIGNYPLSIPQQILSKTGETYSKVGTNYWRLMEFISNSYTLEEVESPEQAALVANAFAEFSCTLSDFPVEELAVIIEDFHDISFRMRQLNEAVENDLQDRLSSCQTLVNFCLDQQDFINHVIDISKKLPLHVTHNDTKINNLLFTEGDTPCAVIDLDTCMPGLLMHDFGDMVRTCCSNLAEDDTNIDAMIIKLDIFSALIQSYQNAFGTKMSALEKDSLIVGTKSVPFSLGTRFLTDYLNGDSYFQVSREKHNLDRAFNQIQLFILLCEAEPELIKLAMQALEHHHHHH | not soluble
MDPAEVEFLAEKEMVKIIPNFSLDKIYLIGGDLGPFNPGLPVEVPVWLALNLKQRQKCRIVPPEWMDTDKLEDIREQERKLDTFTPIPNPYYMELTKLLLNHAADNIPKADEIRTLVKDIWDTRMAKLRLSADSFISQQEAHAQLDNLTLMEINTTRSFLLDSLNYMYKLRSNLQPGRSKDY | not soluble
MDPKRWWEKQEDIVISKDQIPRCDNKEVKMFGGMLLACDDVVTEDQLSWAPGFTDLPKKRGKKKDLNKFDAGILPGTSKQNNPMDPQVRLLLEASWEAMVDAGINPRGLRGSQIGDFDECATPGTSGTQKQNPVTEMGCIMSDTVPSMFSNRISYTFDLQGPSHSADKINFSTKKRMTKLRNRNSIV | not soluble
MDPLVSFFDGMAQASWLRPVHDRLKKGTGSWANRAVLDVGCGTGRLLARGVHEAAHLAGVDLSKQMVLATEERLHEHKQCGRLTVVQGDAYDLPFADESFDVCLSTCVMFLLPEPERGMKEMIRVLNGAGVIGMLNPTNKMNHAAAKAYCKKSGITGFEEKTLLQWSNVSTRRHRYTAEQLTHFFKQHGAWVVTHELVLDGLAVVTVASWNKLEHHHHHH | not soluble
MDPQGYFLWYQVEMPEDRVNDLARELRIRDNVRRVMVVASTTPGRYEVNIVLNPNLDQSQLALEKEIIQRALENYGARVEKVEELGLRRLAYPIAK | soluble
MDPQILSPASYGNRAPQKKKKPKKPSAELPSRHSTRSDENSGKIEPGTEHMSSGQRKNLKLLKSDERARVIDARAVLDSAQKHLATLLKNGGKGGDEDIDELIFNREAEIPVEPIRKGKCPFYFDQRILTIVGRVGEVPVQHWFAIYNTSPFPYMFKIKCSDNSLFKIHPVCGVLDALCDAEISVTFVGAHVPPRYTSYLSIHSMLPDPLFLDVPQAFRNRRNFETRQRLYVEYAYHEDPILVTAEEDRDQFHFQYMRKVLKTDEAESFAKKLKAEKVERLDKKIDEIKARKIDEKLIEREIVRAESPKFEPKTRRLRVEKFFNQQKQKKENEWMEKLKVDASRKPMLSHWDLEMKNIKAEKKKIGAVKKKIKAEKKEDKKKPMGWMSTLKMERDERRTKRKEEEEKKKKDAEEKKKKDAEEKKKKDAEDEKKKDAGDEKKKDAEDEKKKDAGDEKKKKDAGEKKKKDAEEKKKVAEEEKKS | soluble
MDQIRQLAQWIKEANTIAVLTGAGMSTESGIPDFRSENGLYAQEDNVEYYLSEYYYKKDPVDFWRRFKRMFSLKMMGGFAPNDGHRFLRWLEEMGKTVTILTQNIDGLHTKAGSTNVIELHGTLQTATCPSCGNKYDLSFINRHEVPRCEKCQTIVKPDVVLFGGLVPRMEEAFAAAAASDLLLAMGTSLEVAPVNQIPFYVAAESPATRKVLINKTATRMDGMFDLVIYGGIGKTVASVRKQIQAE | soluble
MDQKRLTHLRQLEAESIHIIREVAAEFANPVMLYSIGKDSSVMLHLARKAFYPGTLPFPLLHVDTGWKFREMYAFRDRTANAYGCELLVHKNPEGVAMGINPFVHGSAKHTDIMKTEGLKQALNKYGFDAAFGGARRDEEKSRAKERIYSFRDRFHRWDPKNQRPELWRNYNGQINKGESIRVFPLSNWTEQDIWQYIWLENIDIVPLYLAAERPVLERDGMLMMVDDDRIDLQPGEVIKKRMVRFRTLGCWPLTGAVESHAQTLPEIIEEMLVSTTSERQGRMIDRDQAGSMELKKRQGYF | not soluble
MDQNLKEQILELKRQKNAIILAHYYQRPEVQEIADFIGDSYNLSKIAKENDADTIVFCGVKFMAESAKVLSPQKKVLLPQPKAGCPMADMADAEGLAALKAKHPNAKVVSYINSSVEVKALCDTCCTSSNAAKIVKRIDSDEIIFLPDKNLGSYVQEMVPEKNIILWDGFCKVHNMIIPTDIEEMKNKYGDMKILAHPECWKPVRDMADFIGSTGAMIDYAEKDTTSDKYLVVTETGIMYKMQERVPNKTFYPLRSMVCVNMKATHLEDVYNSLVNSTFEINIEENLRQKALTSLENMLILGRLEHHHHHH | not soluble
MDQSSHHHHHHMDQKQIEEIVRSVMASMGQAAPAPSEAKCATTNCAAPVTSESCALDLGSAEAKAWIGVENPHRADVLTELRRSTVARVCTGRAGPRPRTQALLRFLADHSRSKDTVLKEVPEEWVKAQGLLEVRSEISDKNLYLTRPDMGRRLCAEAVEALKAQCVANPDVQVVISDGLSTDAITVNYEEILPPLMAGLKQAGLKVGTPFFVRYGRVKIEDQIGEILGAKVVILLVGERPGLGQSESLSCYAVYSPRMATTVEADRTCISNIHQGGTPPVEAAAVIVDLAKRMLEQKASGINMTR | soluble
MDRDELVRYLDAYLRIQDFPQDPSLNGLQVEGKRTVRKVGAAVDAGEAIFRKALEEEVDFLIVHHGLFWGKPFPIVGHHKRRLETLFQGGINLYAAHLPLDAHEEVGNNFVLARELGLVDLTPWDVGVKGRFPQPTPLLQVADRLGQLTGMQPLVHQGGLDHVETVILVSGSGTGLLPKVDADLFVTGEPKHSVFHETFERGLNVIYAGHYDTETFGVKALAAHLEARFGLPWVFLDHPTGL | soluble
MDRDWGGKTGGGGVASSEQTEVSRRERLRQLALETIDLKKDPYFMRNHLGGYECKLCLTLHTNEGNYLAHTQGRRHQMNLARRAAREAKEKPQTVAPPPKIVPKKTIKIGRPGYRIIKQRDPETDQLSLLFQIQYPEIAEDVQPRHRFMSSFEQKVERPDPKYQFLLFAAEPYETIAFKIPNWEIEKSEGNYYLHWDKDNKTFTLQIYFKPRSQPPVKNQQEIPSQQASVGNLMKQQRDPFAPIAFGT | soluble
MDRIRNDGVFYEIAYAESLMPATRKNTLFNGRVLIRSLKSKNIIFSSGAETMLDLRSPVDVMNMSLLWGVANNEARKMISGFPKNLLLQAECRGTGNGDVCSMKLSDAEKLAGNGEEEEQDGASEEKVVVGKEEEAEKVKAPPIEVRMNHSQYQALLQATKNANDMMKKIKASKAASSS | not soluble
